Reference: article PMC5716219

How the values were obtained:
[1] = biological target: T1, CST complex (CTC1-STN1-TEN1) (human, UniProt Q2NKJ3;Q9H668;Q86WV5 1-1217;1-368;1-123); assay: smFRET
[2] = biological target: T1, CST complex (CTC1-STN1-TEN1); assay: EMSA
[3] = biological target: T1, CST complex (CTC1-STN1-TEN1); assay: smFRET; remark: listed apart in the source
[4] = biological target: T1, CST complex (CTC1-STN1-TEN1); assay: EMSA; remark: listed apart in the source
[5] = biological target: T1, CST complex (CTC1-STN1-TEN1); assay: EMSA; remark: listed apart in the source
[6] = biological target: T1, CST complex (CTC1-STN1-TEN1); assay: EMSA; remark: listed apart in the source
[7] = biological target: T1, CST complex (CTC1-STN1-TEN1); assay: EMSA; remark: listed apart in the source
[8] = biological target: T1, CST complex (CTC1-STN1-TEN1); assay: EMSA; remark: listed apart in the source

T1 sequence (Q2NKJ3 whole entry, chain 1 of 3): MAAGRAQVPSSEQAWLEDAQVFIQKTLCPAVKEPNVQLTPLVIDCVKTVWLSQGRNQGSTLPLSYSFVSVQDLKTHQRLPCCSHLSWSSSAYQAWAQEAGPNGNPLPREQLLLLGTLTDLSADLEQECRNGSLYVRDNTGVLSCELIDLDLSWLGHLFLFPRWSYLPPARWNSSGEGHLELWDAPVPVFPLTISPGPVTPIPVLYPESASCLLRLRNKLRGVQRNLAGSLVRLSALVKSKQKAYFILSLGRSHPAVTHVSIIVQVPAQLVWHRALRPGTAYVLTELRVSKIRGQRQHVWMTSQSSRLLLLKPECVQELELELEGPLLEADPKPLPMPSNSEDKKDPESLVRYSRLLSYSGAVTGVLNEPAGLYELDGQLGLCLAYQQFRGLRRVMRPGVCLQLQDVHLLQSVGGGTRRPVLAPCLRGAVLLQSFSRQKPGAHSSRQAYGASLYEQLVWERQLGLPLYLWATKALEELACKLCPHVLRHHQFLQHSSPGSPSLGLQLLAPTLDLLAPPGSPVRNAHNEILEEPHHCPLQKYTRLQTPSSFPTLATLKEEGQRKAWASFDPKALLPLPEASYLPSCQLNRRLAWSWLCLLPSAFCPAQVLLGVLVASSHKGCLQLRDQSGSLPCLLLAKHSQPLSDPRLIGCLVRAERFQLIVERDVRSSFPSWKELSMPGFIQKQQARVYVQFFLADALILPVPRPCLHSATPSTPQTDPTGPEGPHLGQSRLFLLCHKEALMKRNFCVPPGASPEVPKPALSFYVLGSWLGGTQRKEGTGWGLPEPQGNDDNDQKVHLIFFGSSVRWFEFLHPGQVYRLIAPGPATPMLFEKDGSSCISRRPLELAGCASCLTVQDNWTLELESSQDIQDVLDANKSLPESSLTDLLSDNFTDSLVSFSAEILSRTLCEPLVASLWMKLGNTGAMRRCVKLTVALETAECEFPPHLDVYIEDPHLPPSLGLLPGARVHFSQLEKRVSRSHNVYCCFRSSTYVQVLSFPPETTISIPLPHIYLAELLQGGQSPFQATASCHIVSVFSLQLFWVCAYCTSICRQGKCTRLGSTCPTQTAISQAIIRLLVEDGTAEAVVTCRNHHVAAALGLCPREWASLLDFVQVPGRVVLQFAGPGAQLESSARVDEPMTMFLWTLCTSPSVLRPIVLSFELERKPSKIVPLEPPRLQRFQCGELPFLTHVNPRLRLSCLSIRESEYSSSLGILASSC
T1 sequence (Q9H668 whole entry, chain 2 of 3): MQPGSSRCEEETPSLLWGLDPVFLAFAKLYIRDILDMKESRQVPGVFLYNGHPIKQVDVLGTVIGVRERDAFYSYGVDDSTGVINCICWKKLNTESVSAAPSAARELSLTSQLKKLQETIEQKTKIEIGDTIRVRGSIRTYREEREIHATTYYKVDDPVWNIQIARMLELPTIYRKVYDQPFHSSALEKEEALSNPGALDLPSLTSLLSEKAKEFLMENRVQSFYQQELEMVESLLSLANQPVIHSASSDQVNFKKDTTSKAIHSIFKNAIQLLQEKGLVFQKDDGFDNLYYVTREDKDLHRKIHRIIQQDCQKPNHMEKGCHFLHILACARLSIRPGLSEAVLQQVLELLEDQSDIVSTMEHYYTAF
T1 sequence (Q86WV5 whole entry, chain 3 of 3): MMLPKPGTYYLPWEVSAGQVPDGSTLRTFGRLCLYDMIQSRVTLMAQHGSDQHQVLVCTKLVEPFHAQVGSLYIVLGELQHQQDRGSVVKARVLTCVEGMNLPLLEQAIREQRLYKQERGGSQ

B1: smFRET 3G46-Cy3 (mixed)
DNA 1: TGGCGACGGCAGCGAGGCTTAGGGTTAGGGTTAGGGTTAGGGAGCGTA
DNA 2: GCCTCGCTGCCGTCGCCA
- binding result [1]: binds

B2: 3G46 (structured_DNA)
DNA: TTAGGGTTAGGGTTAGGGTTAGGGAGCGTA
- binding result [2]: binds

B3: smFRET non-telomeric junction, 18 nt overhang (mixed)
DNA 1: TGGCGACGGCAGCGAGGCAGCGTATCCGTTCAGTTG
DNA 2: GCCTCGCTGCCGTCGCCA
- binding result [3]: binds

B4: smFRET 3G4-Cy3 (mixed)
DNA 1: TGGCGACGGCAGCGAGGCTTAGGGTTAGGGTTAGGGTTAGGG
DNA 2: GCCTCGCTGCCGTCGCCA
- binding result [1]: binds

B5: Non-Tel fold-back (dsDNA), no overhang (structured_DNA)
DNA: ACGACTGCATCTAGCTTTTTGCTAGATGCAGTCGT
- binding result [4]: no binding

B6: Non-Tel 18 (ssDNA)
DNA: AGCGTATCCGTTCAGTTG
- binding result [4]: no binding

B7: 3G5 (G5 in text) (structured_DNA)
DNA: TTAGGGTTAGGGTTAGGGTTAGGGTTAGGG
- binding result [2]: binds

B8: Two-oligonucleotide junction 32/22 (mixed)
DNA 1: GCGTACTCAGTGACTCAGATCGAGCGTATCCG
DNA 2: CGATCTGAGTCACTGAGTACGC
- binding result [5]: binds

B9: G4 (structured_DNA)
DNA: GGGTTAGGGTTAGGGTTAGGG
- binding result [2]: binds

B10: Non-Tel fold-back 18 nt 3' overhang (structured_DNA)
DNA: ACGACTGCATCTAGCTTTTTGCTAGATGCAGTCGTAGCGTATCCGTTCAGTTG
- binding result [6]: binds

B11: 3G4 (structured_DNA)
DNA: TTAGGGTTAGGGTTAGGGTTAGGG
- binding result [2]: binds

B12: Tel 18 (ssDNA)
DNA: GGTTAGGGTTAGGGTTAG
- binding result [7]: binds

B13: Non-Tel 22 (ssDNA)
DNA: CGATCTGAGTCACTGAGTACGC
- binding result [8]: no binding

B14: Mixed fold-back 18 nt 3' overhang (structured_DNA)
DNA: ACGACTGCATCTAGCTTTTTGCTAGATGCAGTCGTGGTTAGGGTTAGGGTTAG
- binding result [4]: binds

B15: Telomere fold-back 18 nt 3' overhang (structured_DNA)
DNA: CTAACCGCATCTAGCTTTTTGCTAGATGCGGTTAGGGTTAGGGTTAGGGTTAG
- binding result [6]: binds
